Test results from the supplement of paper PMC10724198.
± gives the standard deviation of the averaged measurements.

Columns and labels:
Saccharomyces cerevisiae [1] = experiment: protein stability index of tFT-peptide fusion (C-terminal peptide) (PSI (0-1 scale)); higher = more stable (slower turnover); conditions: genetic background: wild type; temperature: 30 C
Saccharomyces cerevisiae [2] = experiment: as above
Description: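 MPS profiling in S. cerevisiae of the tFT-X12 degron library: putative degron peptides plus stable controls, 12 aa, fused to the C-terminus of a sfGFP-mCherry timer. Cells are FACS-sorted into 8 mCherry/sfGFP bins and deep-sequenced. PSI runs from 0 (unstable) to 1 (stable). Backgrounds are wild type, das1Δ and doa10Δ at 30 °C, and wild type, das1Δ, cdc34-1 and cdc53-1 at 37 °C; 2-3 technical replicates each.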

[3] = genetic background: cdc34-1, temperature: 37 C
[4] = genetic background: cdc53-1, temperature: 37 C
[5] = genetic background: das1 deletion, temperature: 30 C
[6] = genetic background: das1 deletion, temperature: 37 C
[7] = genetic background: doa10 deletion, temperature: 30 C
[8] = genetic background: wild type, temperature: 30 C
[9] = genetic background: wild type, temperature: 37 C
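Further: PSI is a weighted mean of sequencing reads over stability bins, variants kept only with over 10 reads, mCherry proximal and sfGFP distal, peptide attached via GGGS linker.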

| Sequence | protein stability index (Saccharomyces cerevisiae [1]) | protein stability index (Saccharomyces cerevisiae [2]; [3]) | protein stability index (Saccharomyces cerevisiae [2]; [4]) | protein stability index (Saccharomyces cerevisiae [2]; [5]) | protein stability index (Saccharomyces cerevisiae [2]; [6]) | protein stability index (Saccharomyces cerevisiae [2]; [7]) | protein stability index (Saccharomyces cerevisiae [2]; [8]) | protein stability index (Saccharomyces cerevisiae [2]; [9]) |
| --- | --- | --- | --- | --- | --- | --- | --- | --- |
| FWCVFVFFVCVG | 0.275 ± 0.01 | 0.255 ± 0.042 | 0.354 ± 0.006 | 0.258 ± 0.028 | 0.399 ± 0.013 | 0.231 ± 0.0025 | 0.238 ± 0.023 | 0.349 ± 0.017 |
| GGHGGRRRKGVG | 0.41 ± 0.046 | 0.36 ± 0.017 | 0.45 ± 0.0053 | 0.414 ± 0.019 | 0.435 ± 0.0098 | 0.409 ± 0.0082 | 0.381 ± 0.0054 | 0.439 ± 0.013 |
| PCTFYLFWMFFV | 0.3041 ± 0.002 | 0.4168 ± 0.0038 | 0.565 ± 0.042 | 0.43 ± 0.018 | 0.6011 ± 0.0014 | 0.223 ± 0.011 | 0.228 ± 0.021 | 0.328 ± 0.0081 |
| PPPPPSRPFSPP | 0.502 ± 0.015 | 0.698 ± 0.042 | 0.7412 ± 0.0017 | 0.687 ± 0.0079 | 0.71 ± 0.024 | 0.689 ± 0.0074 | 0.6544 ± 0.0037 | 0.709 ± 0.013 |
| CASIVDGFAFRF | 0.7662 ± 0.0074 | 0.752 ± 0.0086 | 0.782 ± 0.03 | 0.632 ± 0.011 | 0.786 ± 0.0097 | 0.646 ± 0.023 | 0.679 ± 0.046 | 0.7472 ± 0.0015 |
| RRLAVWCDFRSL | 0.45 ± 0.012 | 0.684 ± 0.054 | 0.75155 ± 0.00053 | 0.663 ± 0.018 | 0.7472 ± 0.00055 | 0.416 ± 0.0061 | 0.454 ± 0.035 | 0.653 ± 0.0095 |
| SYLPSHVYIFLL | 0.128 ± 0.019 | 0.275 ± 0.0049 | 0.309 ± 0.02 | 0.273 ± 0.032 | 0.4417 ± 0.0022 | 0.097 ± 0.0087 | 0.0758 ± 0.019 | 0.129 ± 0.034 |
| AFPSSVILMVFS | 0.332 ± 0.019 | 0.323 ± 0.036 | 0.32 ± 0.034 | 0.29 ± 0.032 | 0.425 ± 0.0063 | 0.228 ± 0.0063 | 0.287 ± 0.018 | 0.3872 ± 0.0029 |
| LGFHFFFTLIFF | 0.381 ± 0.03 | 0.284 ± 0.054 | 0.274 ± 0.0087 | 0.279 ± 0.04 | 0.4 ± 0.031 | 0.4518 ± 0.0032 | 0.305 ± 0.039 | 0.37 ± 0.042 |
| KLLGVLFVLFPG | 0.443 ± 0.017 | 0.486 ± 0.012 | 0.599 ± 0.034 | 0.367 ± 0.031 | 0.569 ± 0.01 | 0.324 ± 0.0068 | 0.336 ± 0.026 | 0.527 ± 0.018 |
| RCSLRLRFIFVR | 0.166 ± 0.0029 | 0.0761 ± 0.024 | 0.0507 ± 0.018 | 0.128 ± 0.019 | 0.159 ± 0.0038 | 0.254 ± 0.024 | 0.104 ± 0.022 | 0.116 ± 0.0027 |
| YMNLYKNVISVT | 0.408 ± 0.057 | 0.473 ± 0.044 | 0.47 ± 0.054 | 0.378 ± 0.024 | 0.522 ± 0.0072 | 0.316 ± 0.021 | 0.353 ± 0.024 | 0.457 ± 0.0095 |
| RALSLPPLLLVL | 0.423 ± 0.023 | 0.386 ± 0.013 | 0.443 ± 0.038 | 0.319 ± 0.013 | 0.48 ± 0.011 | 0.338 ± 0.029 | 0.326 ± 0.029 | 0.4351 ± 0.0017 |
| LVCLPVGFFLMW | 0.4899 ± 0.0037 | 0.565 ± 0.084 | 0.638 ± 0.0074 | 0.47 ± 0.034 | 0.634 ± 0.0072 | 0.388 ± 0.0045 | 0.411 ± 0.013 | 0.576 ± 0.0068 |
| RGYSAIWGCKMN | 0.3812 ± 0.0021 | 0.619 ± 0.097 | 0.742 ± 0.045 | 0.654 ± 0.0072 | 0.74 ± 0.011 | 0.184 ± 0.021 | 0.228 ± 0.018 | 0.529 ± 0.077 |
| SLLFVFVSVGCI | 0.253 ± 0.016 | 0.0483 ± 0.0074 | 0.147 ± 0.0097 | 0.148 ± 0.03 | 0.246 ± 0.035 | 0.116 ± 0.0038 | 0.148 ± 0.025 | 0.166 ± 0.023 |
| GGVWSAFAVWVC | 0.133 ± 0.0023 | 0.188 ± 0.0039 | 0.338 ± 0.027 | 0.288 ± 0.025 | 0.446 ± 0.0074 | 0.0761 ± 0.0025 | 0.0784 ± 0.013 | 0.0546 ± 0.014 |
| FFLFLVCLFFFS | 0.37 ± 0.026 | 0.405 ± 0.016 | 0.36 ± 0.1 | 0.358 ± 0.032 | 0.487 ± 0.011 | 0.36 ± 0.049 | 0.355 ± 0.031 | 0.4333 ± 0.0037 |
| GLSWRLVWVVII | 0.103 ± 0.011 | 0.0421 ± 0.0072 | 0.0599 ± 0.011 | 0.132 ± 0.02 | 0.189 ± 0.0048 | 0.0916 ± 0.006 | 0.0531 ± 0.0056 | 0.0493 ± 0.0093 |
| RSLSWCTKRRCC | 0.3718 ± 0.00091 | 0.595 ± 0.044 | 0.7011 ± 0.0057 | 0.675 ± 0.016 | 0.71892 ± 0.00035 | 0.221 ± 0.015 | 0.226 ± 0.022 | 0.454 ± 0.013 |

| Sequence | protein stability index (Saccharomyces cerevisiae [1]) | protein stability index (Saccharomyces cerevisiae [2]; [3]) | protein stability index (Saccharomyces cerevisiae [2]; [4]) | protein stability index (Saccharomyces cerevisiae [2]; [5]) | protein stability index (Saccharomyces cerevisiae [2]; [6]) | protein stability index (Saccharomyces cerevisiae [2]; [7]) | protein stability index (Saccharomyces cerevisiae [2]; [8]) | protein stability index (Saccharomyces cerevisiae [2]; [9]) |
| --- | --- | --- | --- | --- | --- | --- | --- | --- |
| CHFLLPFLFTCA | 0.332 ± 0.006 | 0.225 ± 0.027 | 0.28 ± 0.0099 | 0.244 ± 0.043 | 0.3685 ± 0.00097 | 0.1949 ± 0.0015 | 0.221 ± 0.024 | 0.309 ± 0.0071 |
| FGKGRSLLLVFS | 0.475 ± 0.016 | 0.548 ± 0.02 | 0.597 ± 0.022 | 0.378 ± 0.044 | 0.582 ± 0.0092 | 0.347 ± 0.015 | 0.395 ± 0.013 | 0.5765 ± 0.0039 |
| LQSYVSRLVRLS | 0.295 ± 0.015 | 0.618 ± 0.082 | 0.745 ± 0.027 | 0.653 ± 0.041 | 0.7356 ± 0.00043 | 0.191 ± 0.0033 | 0.186 ± 0.036 | 0.359 ± 0.055 |
| VLGARWHWIYIA | 0.111 ± 0.024 | 0.281 ± 0.071 | 0.526 ± 0.0082 | 0.501 ± 0.014 | 0.6636 ± 0.0012 | 0.0782 ± 0.011 | 0.078 ± 0.023 | 0.06742 ± 0.00037 |
| GKWVWSSFVWFG | 0.19 ± 0.0062 | 0.457 ± 0.033 | 0.541 ± 0.011 | 0.509 ± 0.023 | 0.674 ± 0.03 | 0.0899 ± 0.0064 | 0.0965 ± 0.021 | 0.0945 ± 0.0042 |
| RCQILSYCLLFV | 0.407 ± 0.012 | 0.4186 ± 0.0033 | 0.42 ± 0.017 | 0.34 ± 0.025 | 0.477 ± 0.016 | 0.381 ± 0.025 | 0.33 ± 0.024 | 0.4523 ± 0.0013 |
| TVRVVMLRLLFT | 0.418 ± 0.021 | 0.452 ± 0.027 | 0.52 ± 0.025 | 0.346 ± 0.035 | 0.528 ± 0.0076 | 0.309 ± 0.02 | 0.33 ± 0.024 | 0.493 ± 0.018 |
| YVQTKKTRYVLV | 0.454 ± 0.055 | 0.483 ± 0.027 | 0.506 ± 0.027 | 0.383 ± 0.025 | 0.543 ± 0.011 | 0.32 ± 0.0047 | 0.343 ± 0.018 | 0.5038 ± 0.0023 |
| SVLASFFSAFVC | 0.195 ± 0.01 | 0.459 ± 0.0087 | 0.6975 ± 0.0014 | 0.598 ± 0.011 | 0.7258 ± 0.0054 | 0.118 ± 0.015 | 0.118 ± 0.023 | 0.149 ± 0.0027 |
| SCLRVYFSVVVS | 0.359 ± 0.031 | 0.231 ± 0.013 | 0.295 ± 0.048 | 0.286 ± 0.037 | 0.389 ± 0.015 | 0.258 ± 0.0076 | 0.288 ± 0.017 | 0.36 ± 0.027 |
| VVFFFKFFLLRL | 0.363 ± 0.026 | 0.262 ± 0.0047 | 0.224 ± 0.025 | 0.318 ± 0.031 | 0.407 ± 0.033 | 0.362 ± 0.018 | 0.246 ± 0.035 | 0.325 ± 0.019 |
| LPPSTFLLHFLL | 0.317 ± 0.0077 | 0.667 ± 0.046 | 0.714 ± 0.011 | 0.656 ± 0.013 | 0.744 ± 0.0099 | 0.218 ± 0.018 | 0.232 ± 0.026 | 0.415 ± 0.0062 |
| SLFSPPVLATPS | 0.0217 ± 0.0033 | 0.668 ± 0.031 | 0.7094 ± 0.0039 | 0.572 ± 0.018 | 0.705 ± 0.011 | 0.556 ± 0.02 | 0.569 ± 0.022 | 0.6797 ± 0.0026 |
| FCCWCVCFGYSG | 0.443 ± 0.0049 | 0.575 ± 0.093 | 0.604 ± 0.013 | 0.395 ± 0.019 | 0.582 ± 0.0089 | 0.372 ± 0.02 | 0.394 ± 0.025 | 0.549 ± 0.007 |
| HCNRLIFWYKCT | 0.288 ± 0.0074 | 0.508 ± 0.082 | 0.745 ± 0.025 | 0.656 ± 0.052 | 0.723 ± 0.035 | 0.189 ± 0.0086 | 0.224 ± 0.032 | 0.298 ± 0.0068 |
| FFRFNCVFWLFL | 0.3129 ± 0.0019 | 0.509 ± 0.0099 | 0.551 ± 0.033 | 0.443 ± 0.021 | 0.604 ± 0.034 | 0.211 ± 0.0028 | 0.233 ± 0.016 | 0.428 ± 0.053 |
| LLHQSVHSHIPP | 0.534 ± 0.052 | 0.637 ± 0.0097 | 0.72 ± 0.013 | 0.638 ± 0.022 | 0.733 ± 0.021 | 0.641 ± 0.018 | 0.641 ± 0.024 | 0.6911 ± 0.0067 |
| VVPVGLYSVILV | 0.4269 ± 0.0008 | 0.427 ± 0.012 | 0.447 ± 0.028 | 0.322 ± 0.03 | 0.4839 ± 0.0039 | 0.289 ± 0.0065 | 0.306 ± 0.021 | 0.451 ± 0.02 |
| YVDSGLTLIHLA | 0.297 ± 0.021 | 0.606 ± 0.0079 | 0.723 ± 0.036 | 0.662 ± 0.018 | 0.72 ± 0.013 | 0.17091 ± 8.6e-05 | 0.181 ± 0.023 | 0.334 ± 0.011 |
